{"source": "patent US20250302974A1", "about": "“LECTIN-DRUG CONJUGATES” (UNICHEM LABORATORIES LIMITED, priority 2021, published 2025)", "molecules": {"B1": {"name": "SEQ ID NO: 2: recombinant variant of the S. rolfsii lectin amino acid sequence (reported as Rec-2 in WO2010/095143) (protein)", "chain": "TYKITVRVYQTNPDAFFHPVEKTVWKYANGGTWTITDDQHVLTMGGSGTSGTLRFHADNGESFTATFGVHNYKRWCDIVTNLAADETGMVINQQYYSQKNREEARERQLSNYQVKNAKGRNFQIVYTEAEGNDLHANLIIG"}}, "key": {"[1]": {"assay": "Glycan binding study, N-Glycan array containing 100 glycans"}, "[2]": {"tested_on": "bladder cancer cells (T24)", "assay": "Colocalization study in cell organelles, confocal microscopy, FITC-tagged lectin", "format": "cell-based", "settings": "100 μg/mL FITC-labelled, 2 h", "procedure": "Study was performed to analyze the localization of SEQ ID NO 2 (test item) in cell organelles using Confocal microscopy.\nTest Item provided as aqueous solution was tagged with FITC label at Bioklone Biotech Pvt Ltd. Resultant concentration of FITC tagged test Item was 1 mg/mL.\nThe stock solution of Test Item was diluted in Serum Free Medium (SFM) at single concentration—100 μg/mL.\nCells were plated on a glass coverslip at a density of 0.1×10^6 cells per well.\nFollowing the incubation cells were washed with PBS (3 washes) and fixed using 4% paraformaldehyde for 10 min at RT. After fixation, cells were permeabilized using 0.5% IGEPAL for 10 min at RT (Permeabilization was not done for cells that were stained with Pan-Cadherin). Post permeabilization, cells were blocked using 5% normal goat serum for 1 hour at RT. Post blocking, cells were treated with organelle specific markers for 1.5 hours at RT followed by secondary antibody for 2 hours at RT.\nFollowing antibodies were used for different organelles:\nPost incubation, cells were washed using PBST (3 washes) and PBS (3 washes) and stained with DAPI (nucleus stain) for 3 min at RT.\nCells were washed (3 washes) and mounted on a glass slide using Prolong Glass antifade mountant. Imaging was done using Confocal fluorescence microscope (Make: Olympus FV1000) at AIRF, JNU. Images were captured using software FluoView. […]"}, "[3]": {"tested_on": "human urinary bladder cancer cell line (T-24)", "assay": "Cytotoxicity assay, cell titer glow luminescence, 72 h", "format": "cell-based", "procedure": "(§1) T-24 Cell line were cultured in McCoy's 5a Medium Modified supplemented with 10% FBS and the PA-1 Cell line was cultured in EMEM Media supplemented with 10% FBS. The assay was performed by plating 5,000 cells/well and incubated at 37° C. overnight. […] Each concentration was added in triplicate and media-only wells used as a control. After incubation for 72 h cell titer glow (Promega) reagent (50 μL) was added to each well and the plates shaken for 5 mins and the luminescence was recorded. Percent viability was determined by dividing luminescence of the treated well by the non-treated well and multiplying by 100. Data was analysed using non-linear regression with a logarithmic scale.\n(§2) 5,000 cells/well were plated and incubated at 37° C. overnight. Conjugates/vehicle control dilutions were made in respective media and added to cells. Volume added: 50 uL to each well. Starting treatment concentration was 1 uM for Conjugate of formula 16 and 18, and control SEQ ID NO: 5 alone and 10% for vehicle control (1×PBS with 20% DMA) and then diluted 10-fold down for a total of 11 treatment dilutions. Each concentration was analysed in triplicates. Media-only wells was used as a control to calculate percent viability. Cell titer glow reagent (volume: 50 uL) was added to each well, the plate was shaken for 5 mins and the luminescence was recorded. Drug Treatment Time: 72 hours. Percent viability was calculated by dividing the luminescence signal obtained for each treated well by the untreated well (media-only control) and multiplying by 100."}, "[4]": {"tested_on": "ovarian cancer cell line (PA-1)", "assay": "Cytotoxicity assay, cell titer glow luminescence, 72 h", "format": "cell-based", "procedure": "as §1, §2"}, "[5]": {"assay": "Glycan binding study, O-Glycan array containing 94 glycans", "settings": "T-antigen and its extended core structures"}, "PBMC Normal": {"tested_on": "PBMC Normal", "assay": "Cytotoxic effect by MTT assay, 48 h", "settings": "for Percent cytotoxicity wrt control: PBMC, 48 h", "procedure": "(§3) Cells were treated with Test Items at various concentrations (0.0001 μM-10 μM) for 48 h. The cells corresponding to Positive Control group were treated with Doxorubicin at a concentration ranging from 0.1 μM-100 μM. The Untreated cells were used as Control. After 48 h of incubation, the effect of Test Items on cytotoxicity of cells was determined by MTT assay, the plates were taken out and 20 μl of 5 mg/m1 of MTT 3-(4,5-dimethythiazol-2-yl)-2,5-diphenyl tetrazolium bromide solution was added to all the wells. Cells were incubated for 3 h at 37° C. The supernatant was aspirated. 150 μl of DMSO was added to each well to dissolve formazan crystals. The absorbance of each well was then read at 540 nm using Synergy HT micro plate reader.\n(§4) The % Cytotoxicity was calculated using the formula:\n(§5) Where, X=Absorbance of cells treated with Test Item; R=Absorbance of Control cells (Untreated cells maintained in growth medium only)."}, "AGS Stomach": {"tested_on": "AGS Stomach", "assay": "Cytotoxic effect by MTT assay, 48 h", "settings": "for Percent cytotoxicity wrt control: AGS, 48 h", "procedure": "as §3, §4, §5\n(§6) Selectivity Index was calculated using the formula:\n(§7) SI=IC50 in Normal cell/IC50 in cancer cell.\n(§8) Activity scores of the Selective Index values were categorized as: • Not selective (SI value ≤1) • Moderately selective (1<SI value <5) • Selective (SI value ≥5)"}, "KB Cervix": {"tested_on": "KB Cervix", "assay": "Cytotoxic effect by MTT assay, 48 h", "settings": "for Percent cytotoxicity wrt control: KB, 48 h", "procedure": "as §3, §4, §5, §6, §7, §8"}, "MG-63 Bone": {"tested_on": "MG-63 Bone", "assay": "Cytotoxic effect by MTT assay, 48 h", "settings": "for Percent cytotoxicity wrt control: 48 h", "procedure": "as §3, §4, §5, §6, §7, §8"}, "U251 MG Brain": {"tested_on": "U251 MG Brain", "assay": "Cytotoxic effect by MTT assay, 48 h", "settings": "for Percent cytotoxicity wrt control: U251 MG, 48 h", "procedure": "as §3, §4, §5, §6, §7, §8"}}}
{"molecule": "B1", "values": [{"measurement": "binding to N-glycans (in words)", "setting": "[1]", "result": "specific binding"}, {"measurement": "colocalization in cell organelles", "setting": "[2]", "result": "colocalized in Mitochondria, Endoplasmic reticulum, Golgi bodies and Plasma membrane"}, {"measurement": "localization in the nuclear envelope", "setting": "[2]", "result": "no localization was observed"}, {"measurement": "IC50 values, T-24 cell line", "setting": "[3]; 72 h", "result": 10.4, "unit": "mg/L"}, {"measurement": "cytotoxic effects below 10 μM concentration", "setting": "[3]; below 10 μM", "result": "does not exhibit major cytotoxic effects"}, {"measurement": "IC50 values, PA-1 Cell line", "setting": "[4]; 72 h", "result": 20.3, "unit": "mg/L"}, {"measurement": "cytotoxic effects below 10 μM concentration", "setting": "[4]; below 10 μM", "result": "does not exhibit major cytotoxic effects"}, {"measurement": "binding profile to O-glycans (in words)", "setting": "[5]", "result": "strong and broad binding profile"}, {"measurement": "Percent cytotoxicity wrt control", "setting": "PBMC Normal; 0.0001 μM", "result": "−7.4", "unit": "%"}, {"measurement": "Percent cytotoxicity wrt control", "setting": "PBMC Normal; 0.001 μM", "result": 19.9, "unit": "%"}, {"measurement": "Percent cytotoxicity wrt control", "setting": "PBMC Normal; 0.01 μM", "result": 24, "unit": "%"}, {"measurement": "Percent cytotoxicity wrt control", "setting": "PBMC Normal; 0.1 μM", "result": 44.9, "unit": "%"}, {"measurement": "Percent cytotoxicity wrt control", "setting": "PBMC Normal; 1 μM", "result": 49.5, "unit": "%"}, {"measurement": "Percent cytotoxicity wrt control", "setting": "PBMC Normal; 10 μM", "result": 43.4, "unit": "%"}, {"measurement": "IC50", "setting": "PBMC Normal; read-out: IC50 Values, PBMC Normal, after 48 h of treatment", "result": "> 10", "unit": "µM"}, {"measurement": "Percent cytotoxicity wrt control", "setting": "AGS Stomach; 0.0001 μM", "result": 7.8, "unit": "%"}, {"measurement": "Percent cytotoxicity wrt control", "setting": "AGS Stomach; 0.001 μM", "result": 8.5, "unit": "%"}, {"measurement": "Percent cytotoxicity wrt control", "setting": "AGS Stomach; 0.01 μM", "result": 15.9, "unit": "%"}, {"measurement": "Percent cytotoxicity wrt control", "setting": "AGS Stomach; 0.1 μM", "result": 37, "unit": "%"}, {"measurement": "Percent cytotoxicity wrt control", "setting": "AGS Stomach; 1 μM", "result": 49.9, "unit": "%"}, {"measurement": "Percent cytotoxicity wrt control", "setting": "AGS Stomach; 10 μM", "result": 57.2, "unit": "%"}, {"measurement": "IC50", "setting": "AGS Stomach; read-out: IC50 Values, AGS Stomach, after 48 h of treatment", "result": 1.72, "unit": "µM"}, {"measurement": "Percent cytotoxicity wrt control", "setting": "KB Cervix; 0.0001 μM", "result": "−1.5", "unit": "%"}, {"measurement": "Percent cytotoxicity wrt control", "setting": "KB Cervix; 0.001 μM", "result": "−2.6", "unit": "%"}, {"measurement": "Percent cytotoxicity wrt control", "setting": "KB Cervix; 0.01 μM", "result": "−3.9", "unit": "%"}, {"measurement": "Percent cytotoxicity wrt control", "setting": "KB Cervix; 0.1 μM", "result": 20.4, "unit": "%"}, {"measurement": "Percent cytotoxicity wrt control", "setting": "KB Cervix; 1 μM", "result": 51.2, "unit": "%"}, {"measurement": "Percent cytotoxicity wrt control", "setting": "KB Cervix; 10 μM", "result": 54.9, "unit": "%"}, {"measurement": "IC50", "setting": "KB Cervix; read-out: IC50 Values, KB Cervix, after 48 h of treatment", "result": 0.88, "unit": "µM"}, {"measurement": "Percent cytotoxicity wrt control", "setting": "MG-63 Bone; MG-63, 0.0001 μM", "result": 27, "unit": "%"}, {"measurement": "Percent cytotoxicity wrt control", "setting": "MG-63 Bone; MG-63, 0.001 μM", "result": 38.7, "unit": "%"}, {"measurement": "Percent cytotoxicity wrt control", "setting": "MG-63 Bone; MG-63, 0.01 μM", "result": 50.4, "unit": "%"}, {"measurement": "Percent cytotoxicity wrt control", "setting": "MG-63 Bone; MG-63, 0.1 μM", "result": 59.1, "unit": "%"}, {"measurement": "Percent cytotoxicity wrt control", "setting": "MG-63 Bone; MG-63, 1 μM", "result": 72.3, "unit": "%"}, {"measurement": "Percent cytotoxicity wrt control", "setting": "MG-63 Bone; MG-63, 10 μM", "result": 74, "unit": "%"}, {"measurement": "IC50", "setting": "MG-63 Bone; read-out: IC50 Values, MG-63 Bone, after 48 h of treatment", "result": 0.0127, "unit": "µM"}, {"measurement": "Percent cytotoxicity wrt control", "setting": "U251 MG Brain; 0.0001 μM", "result": "−9.9", "unit": "%"}, {"measurement": "Percent cytotoxicity wrt control", "setting": "U251 MG Brain; 0.001 μM", "result": "−13.2", "unit": "%"}, {"measurement": "Percent cytotoxicity wrt control", "setting": "U251 MG Brain; 0.01 μM", "result": "−14.5", "unit": "%"}, {"measurement": "Percent cytotoxicity wrt control", "setting": "U251 MG Brain; 0.1 μM", "result": "−5.3", "unit": "%"}, {"measurement": "Percent cytotoxicity wrt control", "setting": "U251 MG Brain; 1 μM", "result": 15.9, "unit": "%"}, {"measurement": "Percent cytotoxicity wrt control", "setting": "U251 MG Brain; 10 μM", "result": 62.5, "unit": "%"}, {"measurement": "IC50", "setting": "U251 MG Brain; read-out: IC50 Values, U251 MG Brain, after 48 h of treatment", "result": 5.95, "unit": "µM"}]}
